# Source: publication PMC8932913
# pKd: −log10 of the molar value.
# Biological target: recombinant Hbl B’ of B. cereus strain F837/76 (Bacillus cereus strain F837/76)
# Assay: SPR; Biacore S200; rHbl B’ amine-coupled (350 RU) on a CM5 chip; rHbl L1, L2 or B injected at 7.8125 nM to 2 µM, 30 µl/min, 20°C; running buffer PBS, 1 mM DTT, 0.005% Tween 20; 1:1 binding model; three experiments
substance,measurement,value
recombinant Hbl L1 (natural protein),pKd,6.88
